Earlier results in paper PMC130215.

Biological target: LIR-1 (ILT2) (Homo sapiens) (UniProt Q8NHL6)
Sequence of UniProt Q8NHL6 (Q8NHL6 24-461): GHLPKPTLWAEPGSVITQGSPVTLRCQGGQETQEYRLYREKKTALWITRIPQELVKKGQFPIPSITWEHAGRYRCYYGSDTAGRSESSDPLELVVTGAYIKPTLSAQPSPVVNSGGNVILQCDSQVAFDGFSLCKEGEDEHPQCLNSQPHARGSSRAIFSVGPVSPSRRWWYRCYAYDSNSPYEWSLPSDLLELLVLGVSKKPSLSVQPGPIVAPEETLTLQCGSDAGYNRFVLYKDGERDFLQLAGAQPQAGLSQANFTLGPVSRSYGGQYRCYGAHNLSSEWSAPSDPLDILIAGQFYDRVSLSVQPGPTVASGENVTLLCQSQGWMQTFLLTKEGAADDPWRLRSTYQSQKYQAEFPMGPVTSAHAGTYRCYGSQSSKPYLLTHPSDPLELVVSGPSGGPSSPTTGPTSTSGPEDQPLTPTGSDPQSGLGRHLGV

## UL18 (from UniProt P08560)
  Kd: 2 nM
